Laboratory results as given in IntAct's records for PubMed 17380128.

B1: Retinoblastoma-associated protein (Homo sapiens), P06400 (parent)
chain: MPPKTPRKTAATAAAAAAEPPAPPPPPPPEEDPEQDSGPEDLPLVRLEFEETEEPDFTALCQKLKIPDHVRERAWLTWEKVSSVDGVLGGYIQKKKELWGICIFIAAVDLDEMSFTFTELQKNIEISVHKFFNLLKEIDTSTKVDNAMSRLLKKYDVLFALFSKLERTCELIYLTQPSSSISTEINSALVLKVSWITFLLAKGEVLQMEDDLVISFQLMLCVLDYFIKLSPPMLLKEPYKTAVIPINGSPRTPRRGQNRSARIAKQLENDTRIIEVLCKEHECNIDEVKNVYFKNFIPFMNSLGLVTSNGLPEVENLSKRYEEIYLKNKDLDARLFLDHDKTLQTDSIDSFETQRTPRKSNLDEEVNVIPPHTPVRTVMNTIQQLMMILNSASDQPSENLISYFNNCTVNPKESILKRVKDIGYIFKEKFAKAVGQGCVEIGSQRYKLGVRLYYRVMESMLKSEEERLSIQNFSKLLNDNIFHMSLLACALEVVMATYSRSTSQNLDSGTDLSFPWILNVLNLKAFDFYKVIESFIKAEGNLTREMIKHLERCEHRIMESLAWLSDSPLFDLIKQSKDREGPTDHLESACPLNLPLQNNHTAADMYLSPVRSPKKKGSTTRVNSTANAETQATSAFQTQKPLKSTSLSLFYKKVYRLAYLRLNTLCERLLSEHPELEHIIWTLFQHTLQNEYELMRDRHLDQIMMCSMYGICKVKNIDLKFKIIVTAYKDLPHAVQETFKRVLIKEEEYDSIIVFYNSVFMQRLKTNILQYASTRPPTLSPIPHIPRSPYKFPSSPLRIPGGNIYISPLKSPYKISEGLPTPTKMTPRSRILVSIGESFGTSEKFQKINQMVCNSDRVLKRSAEGSNPPKPLKKLRFDIEGSDEADGSKHLPGESKFQQKLAEMTSTRTRMQKQKMNDSMDTSNKEEK

Variants of: B1
Conditions: with e2f1_human E2F1, Q01094
Sequence of e2f1_human E2F1, Q01094 (Q01094 whole entry): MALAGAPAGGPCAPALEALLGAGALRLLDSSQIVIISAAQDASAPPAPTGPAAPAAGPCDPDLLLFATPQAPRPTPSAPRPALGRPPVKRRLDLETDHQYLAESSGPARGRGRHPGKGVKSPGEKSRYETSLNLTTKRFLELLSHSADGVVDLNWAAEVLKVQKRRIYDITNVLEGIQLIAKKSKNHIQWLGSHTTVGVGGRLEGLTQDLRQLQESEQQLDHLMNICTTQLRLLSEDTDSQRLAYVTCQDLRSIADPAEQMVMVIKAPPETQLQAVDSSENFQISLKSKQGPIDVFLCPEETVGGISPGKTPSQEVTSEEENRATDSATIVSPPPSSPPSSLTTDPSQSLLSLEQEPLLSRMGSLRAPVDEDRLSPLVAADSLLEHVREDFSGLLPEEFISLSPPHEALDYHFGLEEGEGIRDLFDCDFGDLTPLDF
In the case of S612A, the “effect of a mutation on the interaction” value is reported as “decreasing interaction”.
